According to publication PMC3078909:

How the values were obtained:
[1] = tested on: Cys14; experiment: chemical modification (MMTS inactivation followed by enzyme activity); details: not stated for the pKa determination (MMTS inactivation and activity assays were at 25°C); 100 mM TEA, 10 mM EDTA adjusted to the desired pH; free enzyme, 5 µg/mL, 80 µM MMTS
[2] = target: T1, Cys15 (UniProt position 15, AANWKCNGSES); experiment: as above; details: not stated for the pKa determination (MMTS inactivation and activity assays were at 25°C), 100 mM TEA, 10 mM EDTA adjusted to the desired pH, free enzyme, 5 µg/mL
[3] = target: T1, Cys15; experiment: chemical modification (as in ref 24; this article says its new determinations were made 'under the same conditions'); details: free enzyme; cited from earlier work
[4] = target: Cys15 (UniProt position 14, AANWKCNGSQQ); experiment: chemical modification (MMTS inactivation followed by enzyme activity); details: not stated for the pKa determination (MMTS inactivation and activity assays were at 25°C); 100 mM TEA, 10 mM EDTA adjusted to the desired pH; free enzyme, 5 µg/mL, 80 µM MMTS
[5] = target: T2, Cys14 (UniProt position 14, AANWKCNGSQQ); experiment: as above; details: not stated for the pKa determination (MMTS inactivation and activity assays were at 25°C); 100 mM TEA, 10 mM EDTA adjusted to the desired pH; free enzyme, 5 µg/mL, 80 µM MMTS
[6] = target: T2, Cys14; experiment: chemical modification (as in ref 24; this article says its new determinations were made 'under the same conditions'); details: free enzyme; cited from earlier work
[7] = 10 and 80 µM MMTS (mean of both)

Substance: Chimera TcTIM 2,3, 5-8 (TcTIM with regions 1 and 4 of TbTIM) (Trypanosoma cruzi / Trypanosoma brucei chimera; regions 1 and 4 of TcTIM replaced by the TbTIM sequence (13 + 5 differing residues, not listed individually in the text))
- pKa [1]: 10.61±0.06

Substance: Triosephosphate isomerase (TcTIM), wild type (Trypanosoma cruzi)
- pKa ([2]; 10 µM MMTS): 9.27±0.16
- pKa [3]: 9.28±0.07

Substance: Chimera TcTIM 1-3, 5-8 (TcTIM with region 4 of TbTIM) (Trypanosoma cruzi / Trypanosoma brucei chimera; region 4 of TcTIM replaced by the TbTIM sequence (5 substitutions, not listed individually in the text))
- pKa [2, 7]: 9.59±0.06

Substance: Chimera TcTIM 1-3 (regions 1-3 of TcTIM, regions 4-8 of TbTIM) (Trypanosoma cruzi / Trypanosoma brucei chimera; regions 4-8 of TcTIM replaced by the TbTIM sequence (individual substitutions not listed in the text))
- pKa [2, 7]: 9.86±0.05

Substance: Chimera TcTIM 1 (region 1 of TcTIM, regions 2-8 of TbTIM) (Trypanosoma cruzi / Trypanosoma brucei chimera; region 1 of TbTIM replaced by the TcTIM sequence (13 differing residues plus a one-residue N-terminal length difference; individual substitutions not listed in the text))
- pKa [4]: 9.49±0.08

Substance: Chimera TcTIM 1-4 (regions 1-4 of TcTIM, regions 5-8 of TbTIM) (Trypanosoma cruzi / Trypanosoma brucei chimera; regions 5-8 of TcTIM replaced by the TbTIM sequence (individual substitutions not listed in the text; Figure 1 is image only))
- pKa ([2]; 10 µM MMTS): 9.17±0.12

Substance: Triosephosphate isomerase (TbTIM), wild type (Trypanosoma brucei)
- pKa [5]: 10.53±0.06
- pKa [6]: 10.08±0.03
